Changes are numbered by the printed parent chain. Names may count otherwise.
Target: HscA (UniProt P0A6Z1)
Sequence (P0A6Z1 whole entry): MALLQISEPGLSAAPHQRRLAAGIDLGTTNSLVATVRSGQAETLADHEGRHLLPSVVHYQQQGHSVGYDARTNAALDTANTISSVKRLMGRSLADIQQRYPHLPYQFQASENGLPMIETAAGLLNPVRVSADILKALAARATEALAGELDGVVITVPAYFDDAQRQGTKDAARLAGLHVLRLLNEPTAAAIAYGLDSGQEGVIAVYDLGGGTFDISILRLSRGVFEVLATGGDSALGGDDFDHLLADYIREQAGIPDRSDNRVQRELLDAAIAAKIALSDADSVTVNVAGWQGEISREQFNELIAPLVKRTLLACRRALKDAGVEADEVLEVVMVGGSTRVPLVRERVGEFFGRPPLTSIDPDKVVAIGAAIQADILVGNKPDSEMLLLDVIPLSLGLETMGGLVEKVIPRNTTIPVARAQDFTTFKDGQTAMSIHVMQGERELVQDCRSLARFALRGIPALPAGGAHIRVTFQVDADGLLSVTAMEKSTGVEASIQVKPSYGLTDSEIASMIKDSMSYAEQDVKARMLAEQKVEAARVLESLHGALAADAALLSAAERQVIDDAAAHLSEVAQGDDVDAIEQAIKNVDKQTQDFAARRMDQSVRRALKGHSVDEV

B1: HscB(E97A,E100A,E104A) (natural protein)
chain: MDYFTLFGLPARYQLDTQALSLRFQDLQRQYHPDKFASGSQAEQLAAVQQSATINQAWQTLRHPLMRAEYLLSLHGFDLASEQHTVRDTAFLMEQLALRAELDAIEQAKDEARLESFIKRVKKMFDTRHQLMVEQLDNETWDAAADTVRKLRFLDKLRSSAEQLEEKLLDF
B1 was tested, and the HscA ATPase activity, 23 °C, in the absence of IscU: maximal stimulation was 4.3 fold.

B2: HscB(L92A,M93A,F153A) (natural protein)
chain: B1 chain with L92A, M93A, A97E, A100E, A104E, F153A
B2 gave a HscA ATPase activity, 23 °C, in the absence of IscU: maximal stimulation of 3.8 fold.
